Laboratory results: article doi:10.1101/2021.09.30.462597 (bioRxiv, 2021)
Like-named read-outs stand apart in the source and are kept apart here. Blank lines part the entries; values can stand above or below the molecule they belong to.

B7: Kif7-DM-GFP (1-543aa), dimeric Kif7 protein (domain or fragment, human, UniProt Q2M1P5 1-543, looked up)
chain: MGLEAQRLPGAEEAPVRVALRVRPLLPKELLHGHQSCLQVEPGLGRVTLGRDRHFGFHVVLAEDAGQEAVYQACVQPLLEAFFEGFNATVFAYGQTGSGKTYTMGEASVASLLEDEQGIVPRAMAEAFKLIDENDLLDCLVHVSYLEVYKEEFRDLLEVGTASRDIQLREDERGNVVLCGVKEVDVEGLDEVLSLLEMGNAARHTGATHLNHLSSRSHTVFTVTLEQRGRAPSRLPRPAPGQLLVSKFHFVDLAGSERVLKTGSTGERLKESIQINSSLLALGNVISALGDPQRRGSHIPYRDSKITRILKDSLGGNAKTVMIACVSPSSSDFDETLNTLNYASRAQNIRNRATVNWRPEAERPPEETASGARGPPRHRSETRIIHRGRRAPGPATASAAAAMRLGAECARYRACTDAAYSLLRELQAEPGLPGAAARKVRDWLCAVEGERSALSSASGPDSGIESASVEDQAAQGAGGRKEDEGAQQLLTLQNQVARLEEENRDFLAALEDAMEQYKLQSDRLREQQEEMVELRLRLELVRP
B8: Kif7-DM(E502A)-GFP (domain or fragment, human, UniProt Q2M1P5 1-543, looked up)
chain: MGLEAQRLPGAEEAPVRVALRVRPLLPKELLHGHQSCLQVEPGLGRVTLGRDRHFGFHVVLAEDAGQEAVYQACVQPLLEAFFEGFNATVFAYGQTGSGKTYTMGEASVASLLEDEQGIVPRAMAEAFKLIDENDLLDCLVHVSYLEVYKEEFRDLLEVGTASRDIQLREDERGNVVLCGVKEVDVEGLDEVLSLLEMGNAARHTGATHLNHLSSRSHTVFTVTLEQRGRAPSRLPRPAPGQLLVSKFHFVDLAGSERVLKTGSTGERLKESIQINSSLLALGNVISALGDPQRRGSHIPYRDSKITRILKDSLGGNAKTVMIACVSPSSSDFDETLNTLNYASRAQNIRNRATVNWRPEAERPPEETASGARGPPRHRSETRIIHRGRRAPGPATASAAAAMRLGAECARYRACTDAAYSLLRELQAEPGLPGAAARKVRDWLCAVEGERSALSSASGPDSGIESASVEDQAAQGAGGRKEDEGAQQLLTLQNQVARLEEANRDFLAALEDAMEQYKLQSDRLREQQEEMVELRLRLELVRP

What was measured:
[1] = target: Kif27M-Kif7CC chimera (GFP) (human); assay: SEC
[2] = target: Kif7M-Kif27CC chimera (GFP) (human); assay: SEC
[3] = target: T1, Gli2-ZF, zinc-finger domain of Gli2 (recombinant) (human, UniProt P10070 418-604); assay: BLI
T1 sequence (looked up): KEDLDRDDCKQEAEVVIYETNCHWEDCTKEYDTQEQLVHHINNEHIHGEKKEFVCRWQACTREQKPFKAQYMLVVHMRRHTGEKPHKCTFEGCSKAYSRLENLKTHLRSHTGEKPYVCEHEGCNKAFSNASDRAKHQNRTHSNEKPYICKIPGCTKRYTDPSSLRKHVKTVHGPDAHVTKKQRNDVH

[4] = target: T2, Gli2-ZF-GFP (human, UniProt P10070 418-604); assay: SEC
T2 sequence (looked up): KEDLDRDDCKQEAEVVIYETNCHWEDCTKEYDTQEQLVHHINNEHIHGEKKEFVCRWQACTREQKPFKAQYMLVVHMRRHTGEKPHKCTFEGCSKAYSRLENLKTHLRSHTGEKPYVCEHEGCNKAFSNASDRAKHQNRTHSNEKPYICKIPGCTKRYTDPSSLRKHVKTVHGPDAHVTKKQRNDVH

[5] = target: the molecule itself; assay: single molecule fluorescence intensity and photobleaching analysis
[6] = target: B8; assay: TIRF microscopy of proteins on immobilised microtubules
[7] = target: B7; assay: as above
[8] = target: GDP-taxol stabilized microtubules from bovine tubulin (co-sedimentation) (bovine) (UniProt Q6B856); assay: co-sedimentation
[9] = target: GDP-taxol stabilized microtubules from bovine tubulin (co-sedimentation) (bovine) (UniProt Q6B856); assay: co-sedimentation; remark: listed apart in the source
[10] = target: the molecule itself; assay: SEC

B1: GST-Kif7-SCC (481-543aa) (domain or fragment, human, UniProt Q2M1P5 481-543, looked up)
chain: KEDEGAQQLLTLQNQVARLEEENRDFLAALEDAMEQYKLQSDRLREQQEEMVELRLRLELVRP
Kd [3]: 69 ± 20 nM

B3: GST-Kif7-CC (460-600aa) (domain or fragment, human, UniProt Q2M1P5 460-600, looked up)
chain: PDSGIESASVEDQAAQGAGGRKEDEGAQQLLTLQNQVARLEEENRDFLAALEDAMEQYKLQSDRLREQQEEMVELRLRLELVRPGWGGPRLLNGLPPGSFVPRPHTAPLGGAHAHVLGMVPPACLPGDEVGSEQRGEQVTN
Kd [3]: 48 ± 5 nM

B4: GFP-tagged GST-Kif7-CC (domain or fragment, human, UniProt Q2M1P5 460-600, looked up)
chain: PDSGIESASVEDQAAQGAGGRKEDEGAQQLLTLQNQVARLEEENRDFLAALEDAMEQYKLQSDRLREQQEEMVELRLRLELVRPGWGGPRLLNGLPPGSFVPRPHTAPLGGAHAHVLGMVPPACLPGDEVGSEQRGEQVTN
stoichiometry N [5]: 2

Molecule: B7
Kd [8]: 4230 nM
stoichiometry N [4]: 1 Kif7-DM per Gli2-ZF
Kd [9]: 540 nM

Molecule: B8
stoichiometry N [10]: 2

The remaining lines, values ahead:

stoichiometry N [1]: 2
Molecule: Kif27M-Kif7CC chimera (GFP)

stoichiometry N [2]: 2
Molecule: Kif7M-Kif27CC chimera (GFP)

stoichiometry N [4]: 2 Kif7-CC-GFP per Gli2-ZF-GFP
B2: Kif7-CC-GFP (domain or fragment, human, UniProt Q2M1P5 460-600, looked up)
chain: PDSGIESASVEDQAAQGAGGRKEDEGAQQLLTLQNQVARLEEENRDFLAALEDAMEQYKLQSDRLREQQEEMVELRLRLELVRPGWGGPRLLNGLPPGSFVPRPHTAPLGGAHAHVLGMVPPACLPGDEVGSEQRGEQVTN

binding result [3]: binds
B5: GST-Kif7-CC D505A (domain or fragment, human, UniProt Q2M1P5 460-600, looked up)
chain: PDSGIESASVEDQAAQGAGGRKEDEGAQQLLTLQNQVARLEEENRAFLAALEDAMEQYKLQSDRLREQQEEMVELRLRLELVRPGWGGPRLLNGLPPGSFVPRPHTAPLGGAHAHVLGMVPPACLPGDEVGSEQRGEQVTN

binding result [6]: binds
fold above the background fluorescence of Gli alone on microtubules [7]: ~3 fold
B6: Gli2-ZF-SNAP (domain or fragment, human, UniProt P10070 418-604, looked up)
chain: KEDLDRDDCKQEAEVVIYETNCHWEDCTKEYDTQEQLVHHINNEHIHGEKKEFVCRWQACTREQKPFKAQYMLVVHMRRHTGEKPHKCTFEGCSKAYSRLENLKTHLRSHTGEKPYVCEHEGCNKAFSNASDRAKHQNRTHSNEKPYICKIPGCTKRYTDPSSLRKHVKTVHGPDAHVTKKQRNDVH
modifications: Alexa-647 label (in the TIRF assays)
